{"source": "paper PMC4724879", "about": "(Chemical science (Royal Society of Chemistry : 2010), 2014)", "proteins": {"B1": {"name": "Helicobacter pylori high temperature requirement A protein (HpHtrA) (enzyme)", "chain": "GNIQIQSMPKVKERVSVPSKDDTIYSYHDSIKDSIKAVVNISTEKKIKNNFIGGGVFNDPFFQQFFGDLGGMIPKERMERALGSGVIISKDGYIVTNNHVIDGADKIKVTIPGSNKEYSATLVGTDSESDLAVIRITKDNLPTIKFSDSNDISVGDLVFAIGNPFGVGESVTQGIVSALNKSGIGINSYENFIQTDASINPGNSGGALIDSRGGLVGINTAIISKTGGNHGIGFAIPSNMVKDTVTQLIKTGKIERGYLGVGLQDLSGDLQNSYDNKEGAVVISVEKDSPAKKAGILVWDLITEVNGKKVKNTNELRNLIGSMLPNQRVTLKVIRDKKERAFTLTLAERKNPNKKETISAQNGAQGQLNGLQVEDLTQETKRSMRLSDDVQGVLVSQVNENSPAEQAGFRQGNIITKIEEVEVKSVADFNHALEKYKGKPKRFLVLDLNQGYRIILVK"}}, "target": "the molecule itself", "experiment": "crystal structure"}
{"protein": "B1", "values": [{"measurement": "stoichiometry N", "value": 6}]}
